According to patent US20260216362A1, “ANTI-BDCA2 ANTIBODY-DRUG CONJUGATE AND USE THEREOF” (DUALITY BIOLOGICS (SHANGHAI) CO., LTD., priority 2022, published 2026):

Columns and labels:
[1] = test system: pDCs in the peripheral blood of cynomolgus monkeys; test: pDC percentage and BDCA2 expression level on pDCs in peripheral blood of dosed cynomolgus monkeys by FACS; conditions: 10 mg/kg intravenous
Description: Nine female cynomolgus monkeys were divided into 3 groups, 3 cynomolgus monkeys per group.
The pDC percentage in the peripheral blood and the BDCA2 expression level on the surface of pDCs were detected by FACS.
Venous blood of the cynomolgus monkeys was collected by using a heparin anticoagulation tube, 6 mL of red blood cell lysis buffer was added to 300 μL of the blood, and the resulting mixture was placed at room temperature for 10 min. The cells were collected by centrifugation at 400 g for 5 min at room temperature. The cells were washed with PBS and resuspended in 100 μL of cell staining buffer (PBS+1% FBS). 5 μL of Fc Block was added to the cell suspension and left to stand at 4° C. for 10 min. […] The cells were washed twice with PBS, resuspended in 200 μL of the cell staining buffer, and analyzed by using a flow cytometer.

recombinant Human BDCA2 = molecular target: T1, recombinant Human BDCA2 (Homo sapiens, UniProt Q8WTT0); test: Affinity assay of humanized antibodies by BIAcore (SPR); conditions: 1:1 binding model
T1 construct: extracellular domain (Asn45-Ile213) of human BDCA2 (hBDCA2); human IgG1 Fc (fused via a linker) (N); made in house; host or cells: 293E
T1 sequence (Q8WTT0 45-213): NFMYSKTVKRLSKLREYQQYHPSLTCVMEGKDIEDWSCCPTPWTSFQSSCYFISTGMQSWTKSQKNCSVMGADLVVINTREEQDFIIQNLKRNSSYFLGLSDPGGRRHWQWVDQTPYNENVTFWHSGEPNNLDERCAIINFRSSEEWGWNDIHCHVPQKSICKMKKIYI
Description: The humanized antibodies of the present disclosure were assayed for affinity by the BIAcore experiment. The surface of a CM5 chip channel was activated with 50 mM NHS and 200 mM EDC (NHS and EDC from an amino coupling kit) mixed in a ratio of 1:1, and the anti-human IgG (Fc) antibody (diluted with a sodium acetate solution at pH 5.0, the concentration was 25 μg/mL) was injected for 420 s. Then 1 M ethanolamine was injected at a flow rate of 10 μL/min for 420 s to block excess active carboxyl groups on the chip. The humanized antibody was diluted to 1 μg/mL using a running buffer and injected into a detection channel flow cell at a flow rate of 10 μL/min. The sample injection was performed for 60 s for capture. The recombinant Human BDCA2 was diluted to 50 nM or 100 nM with 1× HBS-EP+ (pH 7.4), and diluted in a gradient of 1:2 to 0.39 nM. The test samples hBDCA2 at these concentration gradients were separately injected into the detection channel at a flow rate of 30 μL/min, wherein 2 samples at the concentration of 0 were used for removing background signals. The times for the antibody-antigen binding and dissociation were 180 s and 400 s, respectively. […] After subtraction of the signals from the reference channel (flow cell 1) and 0 concentration, a 1:1 binding model was selected for curve fitting, and kinetic parameters calculated.

[2] = test system: human peripheral blood mononuclear cells; test: Inhibition of CpG-A-induced TNF-α production from human peripheral blood mononuclear cells by BDCA2-ADC; type: cell-based; conditions: 0.5 μM CpG-A, 24 h
Description: The inhibitory effects of the antibody-drug conjugate molecules of the present application on the production from peripheral blood mononuclear cells were detected. Peripheral blood mononuclear cells produce a large number of cytokines after the stimulation of the TLR9 agonist CpG-A. The peripheral blood mononuclear cells were treated in vitro with the BDCA2 antibody-drug conjugate at different concentrations, and IFNα and TNFα produced by the peripheral blood mononuclear cells were quantitatively detected after the stimulation of 0.5 μM CpG-A for a certain period of time. The in vitro activity of the ligand-drug conjugates was evaluated based on the extent of cytokine inhibition.
The cryopreserved human peripheral blood mononuclear cells were thawed, resuspended in a complete culture medium and counted, and the cell suspension was adjusted to 2.5×10^6 cells/mL with the culture medium and cultured overnight. […] The supernatant was collected, and the TNF-α and IFN-α concentration levels in the supernatant were detected using an ELISA kit. Dose-response data were fitted to an S-shaped curve using non-linear regression, and IC50 values were calculated.
TNF-α concentration assay was performed using a Dakewe TNF-α ELISA kit (Cat. No. 1117202). […] The reading at wavelength 450 nm was detected using an M2e instrument within 10 min after the termination. […]

BIIB059: reference antibody specifically binding to BDCA2, sequence derived from U.S. Pat. No. 9,902,775B2; SEQ ID NO: 25 and 26 [reference compound]
BDCA2 level on the surface of pDCs in the blood compared to the blank control [1]: reduced
pDC percentage in the blood compared to the blank control [1]: no significant change
ka (recombinant Human BDCA2): 167000 M⁻¹ s⁻¹
kd (recombinant Human BDCA2): 0.000179 s⁻¹
inhibitory effect on TNF-α secretion [2]: did not have an inhibitory effect
